Measurements as given in article doi:10.1101/2021.10.10.463828 (bioRxiv, 2021).

B1: Tim17 with an affinity tag, overexpressed (natural protein)
chain: MSADHSRDPCPIVILNDFGGAFAMGAIGGVVWHGIKGFRNSPLGERGSGAMSAIKARAPVLGGNFGVWGGLFSTFDCAVKAVRKREDPWNAIIAGFFTGGALAVRGGWRHTRNSSITCACLLGVIEGVGLMFQRYAAWQAKPMAPPLPEAPSSQPLQA
modifications: disulfide bond between Cys10 and Cys77
B2: Tim23, overexpressed (natural protein)
chain: MSWLFGDKTPTDDANAAVGGQDTTKPKELSLKQSLGFEPNINNIISGPGGMHVDTARLHPLAGLDKGVEYLDLEEEQLSSLEGSQGLIPSRGWTDDLCYGTGAVYLLGLGIGGFSGMMQGLQNIPPNSPGKLQLNTVLNHITKRGPFLGNNAGILALSYNIINSTIDALRGKHDTAGSIGAGALTGALFKSSKGLKPMGYSSAMVAAACAVWCSVKKRLLEK

What was measured:
[1] = target: Tim17 with an affinity tag, overexpressed (S. cerevisiae) (UniProt P39515); test: cryo-EM structure
Tim23, overexpressed [2] = target: B2; test: cryo-EM structure
Tim23, overexpressed [3] = target: B2; test: pull-down
[4] = target: B1; test: cryo-EM structure

Tim44, overexpressed (natural protein) showed a stoichiometry N [1] of 1 and a stoichiometry N (Tim23, overexpressed [2]) of 1.

B1: binds (Tim23, overexpressed [3]).

For B2, the “stoichiometry N” value [4] was 1.
